This is an account of results in paper PMC3119699, “Characterizing the Role of Cell-Wall β-1,3-Exoglucanase Xog1p in Candida albicans Adhesion by the Human Antimicrobial Peptide LL-37” (PLoS ONE, 2011).

No end group written: not given here.

The target of assay [1] is T1, Xog1p, cell-wall β-1,3-exoglucanase of C. albicans (endogenous) (C. albicans (endogenous in SC5314)) (UniProt P29717).
T1 sequence: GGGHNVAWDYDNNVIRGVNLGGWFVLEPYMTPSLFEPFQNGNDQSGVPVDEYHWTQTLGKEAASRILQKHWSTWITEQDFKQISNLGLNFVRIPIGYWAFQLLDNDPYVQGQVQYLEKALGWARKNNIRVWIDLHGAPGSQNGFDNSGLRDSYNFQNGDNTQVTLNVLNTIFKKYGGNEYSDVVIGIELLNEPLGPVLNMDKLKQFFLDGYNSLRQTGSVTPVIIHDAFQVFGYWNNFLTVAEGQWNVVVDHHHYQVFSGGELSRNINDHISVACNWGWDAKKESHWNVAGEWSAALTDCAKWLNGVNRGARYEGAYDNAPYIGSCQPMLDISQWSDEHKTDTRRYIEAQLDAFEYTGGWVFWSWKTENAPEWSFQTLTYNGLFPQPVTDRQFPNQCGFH

The target of assay [2] is T2, soluble His-tagged recombinant Xog1p (rXog1p) (C. albicans, UniProt P29717 41-438).
T2 construct: An initiator Met comes from the NdeI site; No tag removal is described; also called full-length rXog1p; not shown: His tag (detected with anti-His6)
T2 sequence: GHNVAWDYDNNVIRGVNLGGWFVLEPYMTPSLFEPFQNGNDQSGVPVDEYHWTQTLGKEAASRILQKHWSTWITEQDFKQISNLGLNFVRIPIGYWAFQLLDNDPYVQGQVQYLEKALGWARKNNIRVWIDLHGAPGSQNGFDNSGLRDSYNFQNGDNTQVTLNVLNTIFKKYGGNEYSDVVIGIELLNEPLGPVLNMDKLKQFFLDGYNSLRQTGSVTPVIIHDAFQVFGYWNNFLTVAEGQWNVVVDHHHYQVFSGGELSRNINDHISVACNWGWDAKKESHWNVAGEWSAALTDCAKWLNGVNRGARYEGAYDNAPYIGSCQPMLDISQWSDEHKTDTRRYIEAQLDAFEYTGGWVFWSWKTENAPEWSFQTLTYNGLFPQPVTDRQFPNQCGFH
Description: pull-down; streptavidin-agarose, BA-LL37 (bait) and purified rXog1p in TBS, room temperature 2 h; six washes with TBS; Tricine SDS-PAGE, Coomassie Blue. The settings on record: both partners purified.

In assay [3] the target is T3, Xog1_(90–115) (residues 90–115 from Xog1p) (C. albicans).
T3 construct: Residues 90–115 of C. albicans cell-wall β-1,3-exoglucanase Xog1p; also called Xog1p_(90–115); source: synthetic peptide (MDBio, Inc.)
T3 peptide: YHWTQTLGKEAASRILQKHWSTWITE
The assay can be described thus: ELISA; Xog1_(90–115) (5 µg) coated on wells; BA-LL37 0.01–5 µg/ml in 0.1% TBST, room temperature 1 h; SA-HRP, A450. The following applies: both partners purified. (An ELISA detects its analyte on a solid surface through an enzyme-linked reagent.)

In turn, LLGDFFRKSKEKIGKEFKRIVQRIKDFLRNLVPRTES [LL-37 (human cathelicidin antimicrobial peptide)] displayed an inhibition of C. albicans adhesion to polystyrene (XTT reduction) at 5 µg/ml (∼1.1 µM) LL-37 in assay [1] of 70%.

B1: biotinylated LL-37 (BA-LL37) (peptide)
peptide: LLGDFFRKSKEKIGKEFKRIVQRIKDFLRNLVPRTES
modifications: also: biotinylated (site not given here)
notes: LL-37, the mature 37-residue C-terminal peptide cut from human cathelicidin by proteinase-3; biotinylated; Detected or captured by its biotin (SA-HRP, SA-DTAF, streptavidin-agarose); source: synthetic peptide (MDBio, Inc.), 95% pure
On to B1, for which the binding result in assay [2] and in assay [3] was “binds” throughout.
